Measured values as given in US20220323495A1 (NATIONAL RESEARCH COUNCIL OF CANADA, published 2022).

B1: F269-3D12 anti-EGFRvIII monoclonal antibody (antibody, V domains shown)
VH: EVQLQQSGPELVKPGSSVRISCKASGYTFTDYNMDWVKQSHGKSLEWIGTINPNNGGTSYNQKFKGKATLTVDKSSSTAYMELRSLTSEDSAVYYCARVRQLGLWFAYWGQGTLVTVSA
VL: EIVLTQSPALMAASPGEKVTITCSVSSSISSSNLHWYQQKSETSPKPWIYGTSNLASGVPVRFSGSGSGTSYSLTISSMEAEDAATYYCQQWSSYPLTFGSGTKLEIK
notes: Mouse hybridoma IgG, tested as supernatant or Protein G purified mAb; also called 3D12-2
B2: F265-5B7 anti-EGFRvIII monoclonal antibody (antibody, V domains shown)
VH: QIQLVQSGPELKKPGETVMISCKASGYSFTNYGMNWVKQAPEKDLKWMGWINTYTGESRYVDEFKGRFAFSLETSVSIVYLKINNLKNEDMATYFCARGPNFDVWGTGTTVTVSS
VL: not shown
notes: Mouse hybridoma IgG, tested as supernatant or Protein G purified mAb; also called 5B7-2

Key:
[1] = target: T1, recombinant human wild-type EGFR protein, native (human, UniProt P00533 25-645); assay: ELISA on coated native recombinant antigen; Exp 1, mAb supernatant
T1 construct: Recombinant protein used as ELISA coat; also called EGFRwt; wt EGFR
Description: (§1) Pre- and post-immune sera titers of animals were assessed by ELISA on recombinant EGFRvIII protein. Unless otherwise stated, all incubations were performed at room temperature. Briefly, half-area 96-well plates (Costar #3690) were coated with 25 μl per well of immunogen at 5 μg/ml in PBS and incubated overnight at 4° C. Microplates were washed three times in PBS and blocked for 30 min with PBS containing 1% bovine serum albumin (BSA, Sigma Cat#A7030). Blocking buffer was removed and 25 μl of serial dilutions of sera samples were added. After a 2-h incubation, microplates were washed 4 times with PBS-TWEEN™ 20 0.05% and 25 μl of a 1/5,000 dilution of alkaline phosphatase conjugated F(ab′)′₂ goat anti-mouse IgG (H+L, #115-056-062, Jackson Immunoresearch, Cedarlane, Burlington, ON) in blocking buffer was added. After a 1-h incubation, microplates were washed 4 times and 25 μl of p-nitrophenyl phosphate (pNPP) substrate (Sigma-Aldrich Canada Co., Oakville, ON) at 1 mg/ml in carbonate buffer at pH 9.6 was added and further incubated for 30 min. Absorbance was read at 405 nm using a SpectraMax 340 PC plate reader (Molecular Devices, Sunnyvale, Calif.).
(§2) To evaluate if monoclonal antibodies bind to a conformational epitope, an ELISA analysis on native and denatured recombinant human wild-type EGFR and EGFRvIII proteins were performed. […] Antigens at 1-2 mg/ml were denatured by incubation at 95° C. for 5 min in PBS containing DTT at 40 mM final concentration. They were then incubated on ice for 5 min and diluted at their final coating concentration for ELISA purpose.
(§3) mAbs were purified using HiTrap ProteinG HP 1 mL columns GE Healthcare cat no. 17-0404-01 and desalted using Zeba-spin desalting columns 5 mL (Pierce) pre-equilibrated in PBS and filter sterilized through […] membrane (Millipore). The final concentration of the antibody solutions was determined using a Nano-drop 2000 (ThermoScientific), using IgG as sample type. ELISA was performed as described above (serum titer determination) using 25 μl of mAb supernatant (Exp 1) or purified mAb at 1 μg/ml (Exp 2).

[2] = target: T2, recombinant human EGFRvIII protein, native (human, UniProt P00533 298-623); assay: as above
T2 construct: Recombinant extracellular domain used as immunogen and ELISA coat; also called EGFRvIII Native
Description: as §1, §2, §3

[3] = target: T3, recombinant human EGFRvIII protein, denatured (human, UniProt P00533 298-623); assay: ELISA on coated denatured recombinant antigen; Exp 1, mAb supernatant
T3 construct: Same protein as m9 after denaturation (95 °C for 5 min in PBS with 40 mM DTT); also called EGFRvIII Denatured
Description: as §1, §2, §3

[4] = target: T4, recombinant human wild-type EGFR protein, denatured (human, UniProt P00533 25-645); assay: as above
T4 construct: Same protein as m11 after denaturation (95 °C for 5 min in PBS with 40 mM DTT); also called EGFRwt Denatured
Description: as §1, §2, §3

[5] = target: T1, recombinant human wild-type EGFR …; assay: ELISA on coated native recombinant antigen; Exp 2, purified mAb 1 µg/ml
Description: as §1, §2, §3

[6] = target: T2, recombinant human EGFRvIII protein, …; assay: as above
Description: as §1, §2, §3

[7] = target: T5, human EGFRvIII amino acid residues 15 to 37, yeast-displayed (human, not fully specified); assay: yeast display; smallest EGFRvIII fragment the antibody was able to bind
T5 construct: also called EGFRvIII 15-37 fragment; aa 15-37
T5 peptide: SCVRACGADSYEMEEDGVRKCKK
Text: (§4) Assessment of the binding of anti-EGFRvIII monoclonal antibodies to the fusion proteins expressed on yeast cell surface was done by flow cytometry analysis. Yeast cells were labeled with both the anti-EGFRvIII monoclonal antibody and chicken anti-Myc antibody the latter being used to monitor the level of expression of the fusion protein. Following a wash step, binding of the primary antibodies is probed by a two-color indirect fluorescence labeling using a specific mouse and chicken secondary antibodies for each of the primary antibody respectively.

[8] = target: T6, EGFRvIII amino acid residues 15 to 37 with Val17 to Ala mutation, yeast-displayed (human, not fully specified); assay: flow cytometry on yeast displaying the Ala-mutated 15-37 fragment; normalized to Myc-tag; wild-type fragment = 100%
T6 construct: The entry already carries the mutation
T6 peptide: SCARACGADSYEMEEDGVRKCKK
Text: as §4
(§5) To further characterize mAb epitopes within the EGFRvIII 15-37 region, an alanine scan of this region was performed, and modified fragments were expressed at the surface of the yeast. […] The resulting DNAs were expressed at the surface of the yeast and each anti-EGFRvIII mAbs was tested on the corresponding yeast mutant strain by flow cytometry analysis. The original Ala19 and Ala22 were not mutated. Thus, this assay determined the contribution of each amino acid(s) in mAb binding in comparison to the original wild-type fragment (SEQ ID NO:5) which is attributed the value of 100%.

[9] = target: T7, EGFRvIII amino acid residues 15 to 37 with Met27 to Ala mutation, yeast-displayed (human, not fully specified); assay: as above
T7 construct: The entry already carries the mutation
T7 peptide: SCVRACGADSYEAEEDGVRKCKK
Text: as §4, §5

[10] = target: T8, EGFRvIII amino acid residues 15 to 37 with Glu29 to Ala mutation, yeast-displayed (human, not fully specified); assay: as above
T8 construct: The entry already carries the mutation
T8 peptide: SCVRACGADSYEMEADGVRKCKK
Text: as §4, §5

[11] = target: T9, EGFRvIII amino acid residues 15 to 37 with Val32 to Ala mutation, yeast-displayed (human, not fully specified); assay: as above
T9 construct: The entry already carries the mutation
T9 peptide: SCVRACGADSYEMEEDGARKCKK
Text: as §4, §5

[12] = target: T10, EGFRvIII amino acid residues 15 to 37 with Tyr25 to Ala mutation, yeast-displayed (human, not fully specified); assay: as above
T10 construct: The entry already carries the mutation
T10 peptide: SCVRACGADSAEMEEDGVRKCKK
Text: as §4, §5

Row | Binder | ELISA absorbance (405 nm) [1] [A405] | ELISA absorbance (405 nm) [2] [A405] | ELISA absorbance (405 nm) [3] [A405] | ELISA absorbance (405 nm) [4] [A405] | ELISA absorbance (405 nm) [5] [A405] | ELISA absorbance (405 nm) [6] [A405] | binding result [7] | % of binding compared to the wild-type sequence [8] [%] | % of binding compared to the wild-type sequence [9] [%] | % of binding compared to the wild-type sequence [10] [%] | % of binding compared to the wild-type sequence [11] [%] | % of binding compared to the wild-type sequence [12] [%]
1 | B1 | 0.095 | 1.17 | 1.86 | 0.045 | 0.011 | 1.12 | binds | 116 | 75.3 | 47.7 | 93.8 | –
2 | B2 | 0.008 | 1.14 | 1.67 | 0.046 | 0.002 | 0.874 | binds | – | 111 | 110 | 101 | 192
